The values that follow come from patent US11510992 (dated 2022).

The target in this assay is Conjugate 45b (human, UniProt P0DOX5 203-448 = IgG part). The assay is described as follows: ELISA.

B1: murine Fcγ RIIb (receptor, mouse, UniProt P08101 30-210, looked up)
chain: THDLPKAVVKLEPPWIQVLKEDTVTLTCEGTHNPGNSSTQWFHNGRSIRSQVQASYTFKATVNDSGEYRCQMEQTRLSDPVDLGVISDWLLLQTPQLVFLEGETITLRCHSWRNKLLNRISFFHNEKSVRYHHYSSNFSIPKANHSHSGDYYCKGSLGRTLHQSKPVTITVQGPKSSRSLP
notes: also called mouse FcγR2B/CD32b
Turning to B1, the binding result was “binds”.

B2: human Fcγ RIIb (receptor, UniProt P31994 43-217, looked up)
chain: TPAAPPKAVLKLEPQWINVLQEDSVTLTCRGTHSPESDSIQWFHNGNLIPTHTQPSYRFKANNNDSGEYTCQTGQTSLSDPVHLTVLSEWLVLQTPHLEFQEGETIVLRCHSWKDKPLVKVTFFQNGKSKKFSRSDPNFSIPQANHSHSGDYHCTGNIGYTLYSSKPVTITVQAP
B2: the binding result is recorded as “binds”.
